Experimental data from patent US12655409B2, “Recombinant lysin and its use in the treatment of Gram-negative bacterial infections” (TELUM THERAPEUTICS S.L., priority 2020, dated 2026).

What was measured:
[1] = test system: E. coli strain DSM 17076 with serotype O157: H7; assay: Enzyme bactericidal activity assay on E. coli serotype O157:H7; format: cell-based, Escherichia coli; conditions: 15 μg mL^−1
Method: (§1) Briefly, the different bacterial cultures were incubated in the specific media (Table 1) at 37° C. or 30° C., according to the strain, until reaching an A600 of 0.3. The cells were then deposited by centrifugation (4500×g, 10 min) and washed twice with the corresponding buffer, with the A600 being adjusted to ≈0.3. A volume of 160 μl of the bacterial suspension was transferred to sterile 96-well plates to which there were added 40 μl of the enzyme under study in a range of doses comprised between 1 and 60 μg mL^−1. The control wells were treated with the same volume of buffer […]. The plates were incubated at 37° C. Samples were taken at different times, serial dilutions performed, and they were seeded in plates containing the specific medium to determine viable bacteria. The experiments were repeated at least 3 times. The bactericidal effect of IKB206 (and its variants) was quantified as the number of logs reduced in the presence of treatment, after a given incubation time (log10 (N0/Ni), where N0=number of CFU mL^−1 before treatment, and Ni=number of CFU mL^−1 after the corresponding incubation time in the presence of each treatment).

[2] = test system: strains from S. xylosus, E. avium, E. faecium and E. faecalis; assay: Enzyme bactericidal activity assay on strains of chicken microbiota; format: cell-based; conditions: 15 μg mL^−1
Method: as §1

[3] = test system: human HEK293 cells; assay: Cytotoxicity assay by means of sulforhodamine B; format: cell-based; conditions: 50 to 400 μg mL^−1, 48 h
Method: A seeding test was performed with human HEK293 cells before performing the experiment. To that end, three different cell concentrations were seeded in a 96-well plate in 100 μl of DMEM medium+10% Fetal Bovine Serum (FBS). These cells were incubated at 37° C. and 5% CO2 for 72 h, monitoring growth. The initial cell concentration showing 80% confluence at 72 h was selected for the further assays, which in this case was 7000 cells/well. Twenty-four hours after seeding the cells, another 100 μl of medium with the concentrations of purified protein IKB206tags to be tested was added. In this case, 400 μg mL^−1, 200 μg mL^−1, 100 μg mL^−1, and 50 μg mL^−1. The assays were performed in quadruplicate. As controls, the cells were incubated only with culture media and with the buffer in which the protein is dissolved (vehicle control). Buffer volume added as a vehicle control was the same volume of the highest protein concentration. The plate was left to incubate for another 48 h. The results were obtained by means of fixing the cells by adding 50 μl of 50% cold trichloroacetic acid (TCA) per well and leaving the plate to incubate for 1 h at room temperature. After discarding the TCA, the plate was washed with distilled water and 40 μl of 0.4% sulforhodamine B (SRB) were added. […] The results were read in Cytation (Bioteck, USA) at an absorbance of 510 nm.

[4] = test system: E. coli ATCC 25922; assay: Efficacy assay using a sepsis model in zebrafish; format: in vivo; conditions: 72 hpi
Method: Once the minimum lethal dose is determined, the six-month old wild-type zebrafish (1.2 grams) were inoculated intraperitoneally (IP) with a total of 10 μl containing 5.5×10^7 CFU mL^−1 of the bacterium E. coli grown in LB medium. All the experiments were repeated at least three times.
To study the protection mediated by the chimera IKB206tags, groups of five (5) six-month old wild-type female zebrafish were infected intraperitoneally (IP) with a lethal dose of the bacterium E. coli (5.5×10^7 CFU). After 1 h, the animals were treated by administering 10 μl of IKB206tags subcutaneously with a dose of 1, 0.5, and 0.25 mg kg-1 of body weight. The fish included in the control group were treated with the buffer in which the protein is dissolved. The animals were observed several times a day and the number of deaths was recorded daily 72 hours post infection (hpi).

[5] = test system: Acinetobacter baumannii; assay: Enzyme bactericidal activity assay on A. baumannii; format: cell-based
Method: as §1, with “A volume of 160 μl of the bacterial suspension was transferred to sterile 96-well plates to which there were added 40 μl of the enzyme under study in a range of doses comprised between 1 and 60 μg mL^−1.” left out

[6] = test system: E. coli strain ATCC 25922; assay: Enzyme bactericidal activity assay on E. coli ATCC 25922; format: cell-based, Escherichia coli
Method: as §1

[7] = test system: E. coli ATCC 25922; assay: MIC by microdilution in TP-Na 10 mM pH 6.15; format: cell-based, Escherichia coli
Method: The IKB206tags endolysin was purified from the Escherichia coli BL21 (DE3) strain, as previously described.
Checkerboard tests were assessed by the microdilution method, as previously described (Moody JA 1992, Moellering E G., Jr.1996). […] Each microtiter well contained 100 μl of a E. coli inoculum of 1×10^5 CFUs mL^−1, with or without the corresponding compounds, in a final volume of 200 μl of Sodium phosphate (TP-Na) buffer 10 mM pH 6.15 per well and the plates were incubated at 37° C. for 17 h.

[8] = test system: Serratia marcescens; assay: Enzyme bactericidal activity assay on S. marcescens; format: cell-based; conditions: incubation time of 120 min
Method: as §1

[9] = test system: Pseudomonas aeruginosa; assay: Enzyme bactericidal activity assay on P. aeruginosa; format: cell-based
Method: as §1, with “A volume of 160 μl of the bacterial suspension was transferred to sterile 96-well plates to which there were added 40 μl of the enzyme under study in a range of doses comprised between 1 and 60 μg mL^−1.” left out

[10] = test system: Klebsiella pneumoniae; assay: Enzyme bactericidal activity assay on K. pneumoniae; format: cell-based
Method: as §1, with “A volume of 160 μl of the bacterial suspension was transferred to sterile 96-well plates to which there were added 40 μl of the enzyme under study in a range of doses comprised between 1 and 60 μg mL^−1.” left out

[11] = uninfected fish, 1 μg g-1
Method: The intraperitoneal (IP) route is chosen for an infection model as it is easy and quick to implement, turning this technique into one that is particularly indicated for use in different groups of experimentation animals. One hour after infection with E. coli ATCC 25922, different doses of IKB206 were administered to each of the groups. […] Furthermore, to determine the toxicity of IKB206 in adult fish, assays in which uninfected fish were inoculated with the highest amount of protein used in the efficacy assays (1 μg g-1) were performed.

[12] = test system: E. coli strain ATCC 25922; assay: Stability studies by E. coli bactericidal activity assay; format: physicochemical, Escherichia coli; conditions: 29 days of storage; −80, −20, 4, 25° C.; glycerol 0 to 10%
Method: To that end, E. coli strain ATCC 25922 and 15 μg mL^−1 of IKB206 dissolved in different concentrations of glycerol (0, 0.2, 2, 5 and 10%) were used. The assays were carried out at different storage temperatures (−80° C., −20° C., 4° C., 25° C.) and storage times (1, 5, 7, 14, 21 and 29 days).

[13] = test system: Citrobacter freundii; assay: Enzyme bactericidal activity assay on C. freundii; format: cell-based; conditions: compared with E. coli or K. pneumoniae
Method: as §1

B1: IKB206: fusion of Enterobacter phage Arya putative endolysin (SEQ ID NO:1) and domain D8 of Bacillus amyloliquefaciens phage endolysin (SEQ ID NO:2), without tags (protein)
chain: MKTSPNGIAVTKYFESFEARAYPDPATGGKPYTIGFGTTVYPSGAPVRLGDVCTKEQAEKYLQNDLAKFEKIVSDAVRVPLNQGQFDALVSFTYNLGPANLRSSTLLKKLNAGDYAGAAKEFPRWNRANGKVMKGLTRRRAAEQCLFEGMGGASAIERGVAAANSGTPKNVSRGTSSTKTTPKYKVKNGDNLTKIAKKHNTTVATLLKLNPGIKDPNMIRVGQTLNVTGSGGKTHKVKSGDTLSKIAVDNKTTVSKLMNLNPEITNPNHIKVGQTIRLS
modifications: Chimeric endolysin (SEQ ID NO1 + SEQ ID NO2)
bactericidal activity on serotype O157:H7 [1]: excellent activity
bactericidal effect on chicken gut microbiota strains [2]: virtually no effect
cytotoxicity versus control (culture media) [3]: not toxic
survival (protection) ([4]; 1 μg g-1 (1 mg kg-1) subcutaneously 1 h after infection): 66.6%
survival (protection) ([4]; 0.25 mg kg-1 subcutaneously 1 h after infection): 16.6%
survival (protection) ([4]; 0.5 mg kg-1 subcutaneously 1 h after infection): 33.3%
bactericidal activity ([5]; 15 μg mL^−1, 120 min): bactericidal activity
killing of the cells present in the assay ([5]; 150 μg mL-1, 120 min): capable of killing all the cells present in the assay
reductions in CFU/mL ([5]; 15 or 150 μg mL^−1): more than 4 logs
reduction in CFU mL^−1 ([6]; 5 μg mL^−1, 15 min of incubation): significantly reducing
incubation time for killing the entire culture ([6]; 15 μg mL^−1): 30 min
reduction of the number of CFU mL^−1 ([6]; 15 μg mL^−1, 5 minutes of incubation): significantly reducing
bactericidal effect (log reduction) ([6]; 15 μg mL^−1, 15 minutes of incubation): more than 3 log
reduction of the bacterial suspension ([6]; 15 μg mL^−1, 30 min of incubation): 5 log
incubation time for killing the entire culture ([6]; 60 μg mL^−1): 15 min
MIC [7]: 9.375 µg/mL
bactericidal effect [8]: ~3 logarithms
bactericidal activity ([9]; 15 μg mL^−1, 120 min): bactericidal activity
killing of the cells present in the assay ([9]; 150 μg mL-1, 120 min): capable of killing all the cells present in the assay
reductions in CFU/mL ([9]; 15 or 150 μg mL^−1): more than 4 logs
bactericidal activity ([10]; 15 μg mL^−1, 120 min): bactericidal activity
killing of the cells present in the assay ([10]; 150 μg mL-1, 120 min): capable of killing all the cells present in the assay
bactericidal activity (reduction) ([10]; under the tested conditions (15 or 150 μg mL^−1)): ≥ 4 logarithms
toxicity in adult fish versus protein buffer [11]: no differences
stability (bactericidal activity after storage) [12]: still fully active
bactericidal activity [13]: significantly lower than that observed in E. coli or K. pneumoniae
